Percent of parent data for 6 variants are collected here from paper PMC8115288 (2021).

B1: GST-CTD (C-terminal domain of HIV-1 integrase, aa 201-288) [HIV-1 (Hx3B)] / His6-SUMO-INI1_(183-304) [not stated] (parent complex)
chain 1: VDIIATDIQTKELQKQITKIQNFRVYYRDSRNPLWKGPAKLLWKGEGAVVIQDNSDIKVVPRRKAKIIRDYGKQMAGDDCVASRQDED
chain 2: PEVLVPIRLDMEIDGQKLRDAFTWNMNEKLMTPEMFSEILCDDLDLNPLTFVPAIASAIRQQIESYPTDSILEDQSDQRVIIKLNIHVGNISLVDQFEWDMSEKENSPEKFALKLCSELGLG

In this assay the parent is B1. The assay can be described thus: Alpha assay; low salt conditions; parent: 100; read off a plot.
For the variant chain 1 K64A, chain 1 K66A, the percent of parent is ~2 % of WT. The result for chain 1 K44A reads ~15 % of WT. With chain 1 W35A, the percent of parent is ~17 % of WT.

chain 1 W35K: the percent of parent was ~4 % of WT.

On to chain 1 W35E, for which the percent of parent was ~2 % of WT.

With chain 1 W35F, the percent of parent is ~90 % of WT.
